T1: cyno CTLA-4 expressed on 293 cells (293-cynoCTLA-4 cells) (cyno, UniProt G7PL88 36-223)
T1 construct: also called cynomolgus CTLA-4
T1 sequence: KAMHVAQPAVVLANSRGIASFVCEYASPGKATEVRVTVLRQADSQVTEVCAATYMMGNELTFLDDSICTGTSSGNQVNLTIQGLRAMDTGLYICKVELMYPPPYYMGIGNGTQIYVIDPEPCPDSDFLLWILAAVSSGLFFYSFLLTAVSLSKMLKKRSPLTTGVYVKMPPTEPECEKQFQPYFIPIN

T2: human CTLA-4 expressed on cells (293-hCTLA-4 cells; CTLA-4-expressing CHO-K1 cells) (human, UniProt P16410 36-223)
T2 construct: also called CD152; cell-expressed CTLA-4
T2 sequence: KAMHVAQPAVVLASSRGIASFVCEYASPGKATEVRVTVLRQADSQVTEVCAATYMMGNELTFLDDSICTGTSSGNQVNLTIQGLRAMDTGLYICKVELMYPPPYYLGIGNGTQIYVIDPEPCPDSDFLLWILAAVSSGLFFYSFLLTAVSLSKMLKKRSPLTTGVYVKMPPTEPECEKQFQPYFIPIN

T3: Recombinant human CTLA-4-his protein (CT4-H5229, Acro Bio) (human, UniProt P16410 36-161)
T3 construct: extracellular domain; Bought protein; also called Human CTLA-4^ECD-his; not shown: his tag
T3 sequence (looked up): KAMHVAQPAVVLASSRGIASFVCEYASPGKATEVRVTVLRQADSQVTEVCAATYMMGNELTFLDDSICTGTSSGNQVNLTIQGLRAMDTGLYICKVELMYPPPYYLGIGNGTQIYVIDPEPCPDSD


Assays:
[1] = target: T1, cyno CTLA-4 expressed on 293 cells …; assay: flow cytometry (MFI) on 293 cells expressing cynomolgus CTLA-4, Alexa 488 anti-human (H+L) detection
Experimental: (§1) The culture medium was aspirated, and the cells were washed twice with HBSS (Hanks Balanced Salt Solution, Invitrogen). The cells were treated with enzyme-free cell dissociation solution (Versene solution, Invitrogen) and collected. The cells were then washed twice with HBSS, cell counts were determined, and cells were resuspended with HBSS at 2×10⁶ cells/mL. BSA was added to the cell suspension to a final concentration of 1%, and the cells were blocked for 30 minutes on ice and then washed twice with HBSS. The cells were collected after centrifugation and resuspended in FACS buffer (HBSS+1% BSA, v/v) at 2×10⁶ cells/mL. 100 μL of the cell suspension were then added to each well of a 96-well plate. 100 μL of purified anti-CTLA-4 antibodies from Example 2 or control antibodies were added to each well of the 96-well plate and incubated for 1 hour on ice, wherein the heavy chain and light chain of the Ipilimumab analogue had amino acid sequences of SEQ ID NO.: 199 and SEQ ID NO.: 200, respectively. Cells were washed twice with FACS buffer, and 100 μL of Alexa 488-labeled anti-human (H+L) antibody (Invitrogen) were added to the 96-well plate and incubated for 1 hour on ice. The samples were washed three times with FACS buffer, and 100 μL of fixation buffer (containing 4% paraformaldehyde, v/v) were added to each well and incubated for 10 minutes. The cells were then washed twice with FACS buffer and resuspended in 100 μL of FACS buffer.

[2] = target: T4, Recombinant mouse CTLA4-his protein (CT4-M52H5, Acro Bio) (mouse, UniProt P09793 36-161); assay: ELISA on coated recombinant mouse CTLA4-his, HRP anti-human IgG (H+L), OD450
T4 construct: Bought protein; also called murine CTLA-4; not shown: his tag
Experimental: Recombinant human or mouse CTLA4-his protein (CT4-H5229 for human protein, CT4-M52H5 for mouse protein, Acro Bio) was diluted in PBS to a concentration of 2 μg/mL, and 100 μL of the diluted CTLA-4-his protein was added per well to ELISA microplates, which were incubated overnight at 4° C. to coat the plates with the recombinant proteins. The plates were then blocked with ELISA blocking solution (containing 2% BSA, 0.05% (v/v) Tween-20, pH7.4 PBS buffer, w/v) at 37° C. for two hours and then incubated with anti-CTLA-4 antibodies with various concentrations for 1 hour at 37° C. The plates were washed and incubated with horseradish peroxidase (HRP) conjugated goat anti-human IgG (H+L) antibody (A18805, Life technologies) at 37° C. for one hour. 100 μL of tetramethylbenzidine (TMB) were added, and the plates were incubated at room temperature for 15 minutes. 50 μL of 1N HCl were added to terminate the reaction, and the OD450 nm was determined by an ELISA plate reader.

[3] = target: T2, human CTLA-4 expressed on cells …; assay: flow cytometry (MFI) on 293 cells expressing human CTLA-4, Alexa 488 anti-human (H+L) detection
Experimental: as §1

[4] = target: T3, Recombinant human CTLA-4-his protein …; assay: ELISA of 293 supernatants on coated human CTLA4-his
[5] = target: T2, human CTLA-4 expressed on cells …; assay: cell-based blocking assay, flow cytometry: % blocking of biotinylated B7.1 ECD-Fc binding to 293-hCTLA-4 cells
Experimental: Cell-Based Receptor-Ligand Binding assay was performed to determine the ability of the anti-CTLA-4 antibodies to block the binding of CTLA-4 to its ligands B7.1. Recombinant B7.1^ECD-Fc protein (B71-H5259, Acro Bio) was biotinylated using EZ-LINK NHS-PEG12-Biotin (Thermo Scientific#21312) according to the manufacturer's instruction. Biotinylated B7.1^ECD-Fc protein was concentrated and free label removed by using Amicon centrifugal filter (10 kDa cut off). The extracellular domain of B7.1 corresponded to amino acids Val35-Asn242 of Uniprot database protein P33681.
The culture medium was aspirated, and the cells were washed twice with PBS. The cells were treated with enzyme-free cell dissociation solution (Versene solution, Invitrogen) and collected. Dissociation solution was neutralized by the addition of 8 mL of culture medium, and cell counts were determined. Cells were centrifuged at 300 g for 5 minutes and resuspended in blocking buffer (containing 2% BSA, pH 7.4 PBS buffer, w/v) at 1×10⁶ cells/mL. The cells were blocked for 15 minutes at 37° C. Meanwhile, the wells of 96-well round-bottom plates were blocked with 200 μL of blocking buffer for 1 hour at 37° C. The blocking buffer was discarded, and 200 μL of cells were dispensed to each well of the 96-well plates (2×10⁵ cells/well). The plates were centrifuged at 500 g for 5 minutes, and the supernatants were discarded. The cells were resuspended in 100 μL of anti-CTLA-4 antibodies prepared in blocking buffer with varying concentrations. 100 μL of biotinylated B7.1 ECD-Fc (60 μg/mL in blocking buffer) were added to each well of 96-well plate and mixed by shaking gently. The plates were incubated at 4° C. for 90 minutes and washed twice with 200 μL blocking buffer. The blocking buffer was discarded, and the cells were resuspended in 100 μL of streptavidin-Alexa 488 solution (Invitrogen, 1:500 in blocking buffer) and incubated at 4° C. for 1 hour. The plates were washed three times with blocking buffer and added with 200 μL of blocking buffer.
The mean fluorescence intensity (MFI) was determined using FACS Calibur (BD).

[6] = target: T2, human CTLA-4 expressed on cells …; assay: flow cytometry on 293F-hCTLA-4 cells

Row | EC50 (read off the curve) [1] [nM] | binding result [2] | EC50 (read off the curve) [3] [nM] | binding result [6] | Binder | further results
1 | ~1 | no binding (tested: 533.3 nM) | ~2 | – | CL24 (antibody, human IgG1, V domains shown, Human heavy-chain-only antibody (HCAb): two heavy chains, no light chain) VH: EVQLVETGGGLIQPGGSLRLSCAASGLNVSRHYLSWVRQAPGKGLEWVAVIYSGGGIEYVDSVKGRFTISRDNANNTLYLQMRSLRTEDSAVYYCARAIPRPHGSDIWGQGTMVTVSS | –
2 | – | – | – | – | CL20 (antibody, human IgG1, V domains shown, Human heavy-chain-only antibody (HCAb): two heavy chains, no light chain) VH: EVQLVESGGGLVQPGGSLRLSCAASGFTFSNYWMHWVRQAPGKGLVWVSRINSDGSNTTYADSVKGRFTISRDNAKNTLYLQMNSLRAEDTAVYYCARWFGEHYYGMDVWGQGTTVTVSS | binding result [4]: binds
3 | ~1 | no binding (tested: 325.5 nM) | ~2 | – | CL11 (antibody, human IgG1, V domains shown, Human heavy-chain-only antibody (HCAb): two heavy chains, no light chain; also called clone 11) VH: EVQLEETGGDLIQPGGSLRLSCTASGFNVSRIYMSWVRQAPGKGLEWVSVIYSGGSIYYADSVRGRFTISRDSSTNTVFLQMNSLRAEDSAVYYCARAVPSAPSSFDIWGQGTMVTVSS | IC50 (read off the curve) [5]: 10 to 20 nM
4 | – | – | – | binds | CL11-dPTM (antibody, human IgG1, V domains shown, HCAb variant with PTM removal) VH: EVQLEETGGDLIQPGGSLRLSCTASGFTVSRIYMSWVRQAPGKGLEWVSVIYSGGSIYYADSVRGRFTISRDSSTNTVFLQMNSLRAEDSAVYYCARAVPSAPSSFDIWGQGTMVTVSS | –
5 | – | – | – | binds | CL30-dPTM (antibody, human IgG1, V domains shown, HCAb variant with PTM removal) VH: EVQLEETGGDLIQPGGSLRLSCTASGFTVSRIYMSWVRQAPGKGLEWVSVIYSGGSIYYADSVRGRFTISRDSSTNTVYLQMNSLRAEDSAVYYCARAVPHAPSNFDKWGQGTRVTVSS | –

Reference: patent publication US20190202914A1 (HARBOUR BIOMED SHANGHAI, published 2019)
